Experimental data as given in PMC2954370.

Target: HIV-1 Env gp140 of isolate JRFL (HIV-1 isolate JRFL (clade B)) (UniProt Q75760)
Experiment: ELISA

## human soluble CD4 (first two domains of the human CD4) (from UniProt P01730 26-203) (domain or fragment)
  EC50: 6 nM
